Source: publication PMC5095700

Substrate: N[C@@H]1[C@@H](O)[C@H](O)[C@@H](CO)O[C@H]1O
Assay: purified protein
Assay type: biochemical, Clostridium acetobutylicum
Settings: CoA C-terminal domain active site, Trp […], Glu […], Asp […]

B1: Glucosamine/glucosaminide N-acetyltransferase (GlmA) (Clostridium acetobutylicum ATCC 824) (protein)
chain: MEIKETYDFSSIVDLWNKNIGTVYPMNLELFKQNYINDRQRKKIMGAFNGEILIGFVIYKQWTYKSGSLKPNHKIGYINSIIVDINFRHQGIGTKLLDAAEEELINSGVKILRCGSDTYHFFPGIPLECLPSEEFFLVRGYKMQDYFYDLIGDVSKVDFKKPSIKDGFKVNVMKPEDRKGLFEFLEKSFSGRWLEEFIEFFQVGMKERDIVLIKYKTSVIGFSHIYDNKSSFIGPPIYWKALLGHNYGGLGPIGIDKTYRKQGLGRLLLYESLQILKKREVKKMVIDWTEKDIINFYGRFNFMPWKAYRKATKEVKDGKG
Protein B1 has a Km of 210 ± 20 µM.
